Stoichiometry N data for one substance are collected here from article doi:10.1101/2025.02.03.636245.

In this test the target is OdinSepF (Candidatus Odinarchaeota). The test is described as follows: SEC-MALS. In general terms: Size exclusion chromatography separates by hydrodynamic size, large species first.

Broadly, the stoichiometry N is a count of units in the complex or per binding partner. The substance OdinSepF (natural protein) registered a stoichiometry N of 2.
